Reference: patent publication US20150328292A1, “CASPASE POLYPEPTIDES HAVING MODIFIED ACTIVITY AND USES THEREOF” (BELLICUM PHARMACEUTICALS, INC., priority 2014, published 2015)
“Also recorded” adds a separate entry of the source.

Tested on: HEK293T/16 cells
Assay: SEAP reporter-based surrogate killing assay (basal activity and AP1903 IC50)
Type: cell-based, human
Details: AP1903-independent SEAP activity, vs wild type
Experimental: FIG. 45 provides a schematic of an analysis of SEAP assays. […] of the mixture was seeded onto each well of a 96-well plate. […] For the assay, 4-methylumbelliferyl phosphate substrate was hydrolyzed by SEAP to 4-methylumbelliferon, a metabolite that can be excited with 364 nm and detected with an emission filter of 448 nm. Since SEAP is used as a marker for cell viability, reduced SEAP reading corresponds with increased icaspase-9 activities.
Early passage HEK293T/16 cells (ATCC, Manassas, Va.) were maintained in IMDM, GlutaMAX™ (Life Technologies, Carlsbad, Calif.) supplemented with 10% FBS, 100 U/mL penicillin, and 100 […] until transfection in a humidified, 37° C., 5% CO2/95% air atmosphere. Cells in logarithmic-phase growth were transiently transfected with 800 ng to 2 μg of expression plasmid encoding iCasp9 mutants and 500 ng of an expression plasmid encoding SRα promoter driven SEAP per million cells in 15-mL conical tubes. […] GeneJammer® Transfection Reagent at a ratio of 3 μl per ug of plasmid DNA was used to transiently transfect HEK293T/16 cells in the absence of antibiotics. 100 μl or 2 mL of the transfection mixture was added to each well in 96-well or 6-well plate, respectively.
Briefly, after 65° C. heat denaturation for 45 minutes to reduce background caused by endogenous (and serum-derived) alkaline phosphatases that are sensitive to heat, 5 μl of supernatants was added to 95 μl of PBS and added to 100 μl of substrate buffer, containing 1 μl of 100 mM 4-methylumbelliferyl phosphate (4-MUP; Sigma, St. Louis, Mo.) re-suspended in 2 M diethanolamine. Hydrolysis of 4-MUP by SEAP produces a fluorescent […] with excitation/emission (355/460 nm), which can be easily measured. Assays were performed in black opaque 96-well plates to minimize fluorescence leakage between wells (FIG. 45).

Row | Molecule | basal activity / basal signaling (in words)
1 | T317S: chimeric modified caspase-9 polypeptide variant (protein) VDGFGDVGALESLRGNADLAYILSMEPCGHCLIINNVNFCRESGLRTRTGSNIDCEKLRRRFSSLHFMVEVKGDLTAKKMVLALLELARQDHGALDCCVVVILSHGCQASHLQFPGAVYGTDGCPVSVEKIVNIFNGTSCPSLGGKPKLFFIQACGGEQKDHGFEVASTSPEDESPGSNPEPDASPFQEGLRTFDQLDAISSLPTPSDIFVSYSTFPGFVSWRDPKSGSWYVETLDDIFEQWAHSEDLQSLLLRVANAVSVKGIYKQMPGCFNFLRKKLFFKTSASRA | lower basal activity; also recorded: reduce basal activity; also recorded: decrease in basal activity
2 | T317A: chimeric modified caspase-9 polypeptide variant (protein) VDGFGDVGALESLRGNADLAYILSMEPCGHCLIINNVNFCRESGLRTRTGSNIDCEKLRRRFSSLHFMVEVKGDLTAKKMVLALLELARQDHGALDCCVVVILSHGCQASHLQFPGAVYGTDGCPVSVEKIVNIFNGTSCPSLGGKPKLFFIQACGGEQKDHGFEVASTSPEDESPGSNPEPDAAPFQEGLRTFDQLDAISSLPTPSDIFVSYSTFPGFVSWRDPKSGSWYVETLDDIFEQWAHSEDLQSLLLRVANAVSVKGIYKQMPGCFNFLRKKLFFKTSASRA | lower basal activity; also recorded: reduce basal activity; also recorded: decrease in basal activity
3 | S196D: chimeric modified caspase-9 polypeptide variant (protein) VDGFGDVGALESLRGNADLAYILSMEPCGHCLIINNVNFCRESGLRTRTGSNIDCEKLRRRFSDLHFMVEVKGDLTAKKMVLALLELARQDHGALDCCVVVILSHGCQASHLQFPGAVYGTDGCPVSVEKIVNIFNGTSCPSLGGKPKLFFIQACGGEQKDHGFEVASTSPEDESPGSNPEPDATPFQEGLRTFDQLDAISSLPTPSDIFVSYSTFPGFVSWRDPKSGSWYVETLDDIFEQWAHSEDLQSLLLRVANAVSVKGIYKQMPGCFNFLRKKLFFKTSASRA | lower basal activity
4 | D330V: chimeric modified caspase-9 polypeptide variant (protein) VDGFGDVGALESLRGNADLAYILSMEPCGHCLIINNVNFCRESGLRTRTGSNIDCEKLRRRFSSLHFMVEVKGDLTAKKMVLALLELARQDHGALDCCVVVILSHGCQASHLQFPGAVYGTDGCPVSVEKIVNIFNGTSCPSLGGKPKLFFIQACGGEQKDHGFEVASTSPEDESPGSNPEPDATPFQEGLRTFDQLVAISSLPTPSDIFVSYSTFPGFVSWRDPKSGSWYVETLDDIFEQWAHSEDLQSLLLRVANAVSVKGIYKQMPGCFNFLRKKLFFKTSASRA | less basal activity than wild type caspase-9
5 | S183A: chimeric modified caspase-9 polypeptide variant (protein) VDGFGDVGALESLRGNADLAYILSMEPCGHCLIINNVNFCRESGLRTRTGANIDCEKLRRRFSSLHFMVEVKGDLTAKKMVLALLELARQDHGALDCCVVVILSHGCQASHLQFPGAVYGTDGCPVSVEKIVNIFNGTSCPSLGGKPKLFFIQACGGEQKDHGFEVASTSPEDESPGSNPEPDATPFQEGLRTFDQLDAISSLPTPSDIFVSYSTFPGFVSWRDPKSGSWYVETLDDIFEQWAHSEDLQSLLLRVANAVSVKGIYKQMPGCFNFLRKKLFFKTSASRA | lower basal activity
6 | A316G: chimeric modified caspase-9 polypeptide variant (protein) VDGFGDVGALESLRGNADLAYILSMEPCGHCLIINNVNFCRESGLRTRTGSNIDCEKLRRRFSSLHFMVEVKGDLTAKKMVLALLELARQDHGALDCCVVVILSHGCQASHLQFPGAVYGTDGCPVSVEKIVNIFNGTSCPSLGGKPKLFFIQACGGEQKDHGFEVASTSPEDESPGSNPEPDGTPFQEGLRTFDQLDAISSLPTPSDIFVSYSTFPGFVSWRDPKSGSWYVETLDDIFEQWAHSEDLQSLLLRVANAVSVKGIYKQMPGCFNFLRKKLFFKTSASRA | lower basal activity
7 | D330N: chimeric modified caspase-9 polypeptide variant (protein) VDGFGDVGALESLRGNADLAYILSMEPCGHCLIINNVNFCRESGLRTRTGSNIDCEKLRRRFSSLHFMVEVKGDLTAKKMVLALLELARQDHGALDCCVVVILSHGCQASHLQFPGAVYGTDGCPVSVEKIVNIFNGTSCPSLGGKPKLFFIQACGGEQKDHGFEVASTSPEDESPGSNPEPDATPFQEGLRTFDQLNAISSLPTPSDIFVSYSTFPGFVSWRDPKSGSWYVETLDDIFEQWAHSEDLQSLLLRVANAVSVKGIYKQMPGCFNFLRKKLFFKTSASRA | less basal activity than wild type caspase-9
8 | D330S: chimeric modified caspase-9 polypeptide variant (protein) VDGFGDVGALESLRGNADLAYILSMEPCGHCLIINNVNFCRESGLRTRTGSNIDCEKLRRRFSSLHFMVEVKGDLTAKKMVLALLELARQDHGALDCCVVVILSHGCQASHLQFPGAVYGTDGCPVSVEKIVNIFNGTSCPSLGGKPKLFFIQACGGEQKDHGFEVASTSPEDESPGSNPEPDATPFQEGLRTFDQLSAISSLPTPSDIFVSYSTFPGFVSWRDPKSGSWYVETLDDIFEQWAHSEDLQSLLLRVANAVSVKGIYKQMPGCFNFLRKKLFFKTSASRA | less basal activity than wild type caspase-9; also recorded: statistically lower basal signaling
9 | D330G: chimeric modified caspase-9 polypeptide variant (protein) VDGFGDVGALESLRGNADLAYILSMEPCGHCLIINNVNFCRESGLRTRTGSNIDCEKLRRRFSSLHFMVEVKGDLTAKKMVLALLELARQDHGALDCCVVVILSHGCQASHLQFPGAVYGTDGCPVSVEKIVNIFNGTSCPSLGGKPKLFFIQACGGEQKDHGFEVASTSPEDESPGSNPEPDATPFQEGLRTFDQLGAISSLPTPSDIFVSYSTFPGFVSWRDPKSGSWYVETLDDIFEQWAHSEDLQSLLLRVANAVSVKGIYKQMPGCFNFLRKKLFFKTSASRA | less basal activity than wild type caspase-9
10 | P318A: chimeric modified caspase-9 polypeptide variant (protein, UniProt P55211 1-416, looked up, variant P318A, chimeric, fused to FKBP12v36, chimeric modified caspase-9 polypeptide variant) MDEADRRLLRRCRLRLVEELQVDQLWDALLSRELFRPHMIEDIQRAGSGSRRDQARQLIIDLETRGSQALPLFISCLEDTGQDMLASFLRTNRQAAKLSKPTLENLTPVVLRPEIRKPEVLRPETPRPVDIGSGGFGDVGALESLRGNADLAYILSMEPCGHCLIINNVNFCRESGLRTRTGSNIDCEKLRRRFSSLHFMVEVKGDLTAKKMVLALLELAQQDHGALDCCVVVILSHGCQASHLQFPGAVYGTDGCPVSVEKIVNIFNGTSCPSLGGKPKLFFIQACGGEQKDHGFEVASTSPEDESPGSNPEPDATAFQEGLRTFDQLDAISSLPTPSDIFVSYSTFPGFVSWRDPKSGSWYVETLDDIFEQWAHSEDLQSLLLRVANAVSVKGIYKQMPGCFNFLRKKLFFKTS | no effect
11 | F319W: chimeric modified caspase-9 polypeptide variant (protein, UniProt P55211 1-416, looked up, variant F319W, chimeric, fused to FKBP12v36, chimeric modified caspase-9 polypeptide variant) MDEADRRLLRRCRLRLVEELQVDQLWDALLSRELFRPHMIEDIQRAGSGSRRDQARQLIIDLETRGSQALPLFISCLEDTGQDMLASFLRTNRQAAKLSKPTLENLTPVVLRPEIRKPEVLRPETPRPVDIGSGGFGDVGALESLRGNADLAYILSMEPCGHCLIINNVNFCRESGLRTRTGSNIDCEKLRRRFSSLHFMVEVKGDLTAKKMVLALLELAQQDHGALDCCVVVILSHGCQASHLQFPGAVYGTDGCPVSVEKIVNIFNGTSCPSLGGKPKLFFIQACGGEQKDHGFEVASTSPEDESPGSNPEPDATPWQEGLRTFDQLDAISSLPTPSDIFVSYSTFPGFVSWRDPKSGSWYVETLDDIFEQWAHSEDLQSLLLRVANAVSVKGIYKQMPGCFNFLRKKLFFKTS | lower basal activity
12 | F319A: chimeric modified caspase-9 polypeptide variant (protein, UniProt P55211 1-416, looked up, variant F319A, chimeric, fused to FKBP12v36, chimeric modified caspase-9 polypeptide variant) MDEADRRLLRRCRLRLVEELQVDQLWDALLSRELFRPHMIEDIQRAGSGSRRDQARQLIIDLETRGSQALPLFISCLEDTGQDMLASFLRTNRQAAKLSKPTLENLTPVVLRPEIRKPEVLRPETPRPVDIGSGGFGDVGALESLRGNADLAYILSMEPCGHCLIINNVNFCRESGLRTRTGSNIDCEKLRRRFSSLHFMVEVKGDLTAKKMVLALLELAQQDHGALDCCVVVILSHGCQASHLQFPGAVYGTDGCPVSVEKIVNIFNGTSCPSLGGKPKLFFIQACGGEQKDHGFEVASTSPEDESPGSNPEPDATPAQEGLRTFDQLDAISSLPTPSDIFVSYSTFPGFVSWRDPKSGSWYVETLDDIFEQWAHSEDLQSLLLRVANAVSVKGIYKQMPGCFNFLRKKLFFKTS | no effect
